Experimental data from FireProtDB (doi:10.1006/jmbi.2000.3958).

B1: Cyclin-dependent kinases regulatory subunit, P08463 (parent)
chain: MSKSGVPRLLTASERERLEPFIDQIHYSPRYADDEYEYRHVMLPKAMLKAIPTDYFNPETGTLRILQEEEWRGLGITQSLGWEMYEVHVPEPHILLFKREKDYQMKFSQQRGG

Variants of: B1
Details: Schizosaccharomyces pombe (strain 972 / ATCC 24843); pH 7.5; 25 °C; Urea; Fluorescence; Tris 50 mM; structure 1SCE; whole UniProt chain shown

For MSKSGVPRLLTASERERLEPFIDQIHYSPRYADDEYEYRHVMLPKAMLKAIPTDYFNPETGTLRILQEEEWRGLGITQSLGWEMYEVHVGEGHILLFKREKDYQMKFSQQRGG [P90G P92G], the “ddG of mutation (higher = less stable)” value was -0.88 kcal/mol, the denaturant m value was 1.46 kcal/mol/M and the “denaturant midpoint (higher = more stable)” value (“denaturant midpoint” below) was 4.97 M.

With MSKSGVPRLLTASERERLEPFIDQIHYSPRYADDEYEYRHVMLPKAMLKAIATDYFNPETGTLRILQEEEWRGLGITQSLGWEMYEVHVPEPHILLFKREKDYQMKFSQQRGG [P52A] the “ddG of mutation (higher = less stable)” value was 2.57 kcal/mol, the denaturant m value was 1.75 kcal/mol/M and the “denaturant midpoint” value was 2.81 M.

In the case of MSKSGVPRLLTASERERLEPFIDQIHYAPRYADDEYEYRHVMLPKAMLKAIPTDYFNPETGTLRILQEEEWRGLGITQSLGWEMYEVHVPEPHILLFKREKDYQMKFSQQRGG [S28A], the “ddG of mutation (higher = less stable)” value is reported as 0.34 kcal/mol, the denaturant m value is reported as 1.61 kcal/mol/M and the “denaturant midpoint” value is reported as 4.21 M.

With MSKSGVPRLLTASERERLEPFIDQIHYGPRYADDEYEYRHVMLPKAMLKAIPTDYFNPETGTLRILQEEEWRGLGITQSLGWEMYEVHVPEPHILLFKREKDYQMKFSQQRGG [S28G] the “ddG of mutation (higher = less stable)” value was -0.89 kcal/mol, the denaturant m value was 1.62 kcal/mol/M and the “denaturant midpoint” value was 4.98 M.

In the case of MSKSGVPRLLTASERERLEPFIDQIHYSPRYADDEYEYRHVMLPKAMLKAIPTDYFNPETGTLRILQEEEWRGLGITQSLGWEMYEVHVGEPHILLFKREKDYQMKFSQQRGG [P90G], the “ddG of mutation (higher = less stable)” value is reported as -1.33 kcal/mol, the denaturant m value is reported as 1.53 kcal/mol/M and the “denaturant midpoint” value is reported as 5.25 M.

With MSKSGVPRLLTASERERLEPFIDQIHYSPRYADDEYEYRHVMLPKAMLKAIPTDYFNPETGTLRILQEEEWRGLGITQSLGWEMYEVHVAEAHILLFKREKDYQMKFSQQRGG [P90A P92A] the “ddG of mutation (higher = less stable)” value was -0.93 kcal/mol, the denaturant m value was 1.4 kcal/mol/M and the “denaturant midpoint” value was 5 M.

For MSKSGVPRLLTASERERLEPFIDQIHYSPRYADDEYEYRHVMLAKAMLKAIPTDYFNPETGTLRILQEEEWRGLGITQSLGWEMYEVHVPEPHILLFKREKDYQMKFSQQRGG [P44A], the “ddG of mutation (higher = less stable)” value was 3.04 kcal/mol, the denaturant m value was 1.56 kcal/mol/M and the “denaturant midpoint” value was 2.52 M.

For MSKSGVPRLLTASERERLEPFIDQIHYSPRYADDEYEYRHVMLPKAMLKAIPTDYFNPETGTLRILQEEEWRGLGITQSLGWEMYEVHVPEAHILLFKREKDYQMKFSQQRGG [P92A], the “ddG of mutation (higher = less stable)” value was -0.07 kcal/mol, the denaturant m value was 1.78 kcal/mol/M and the “denaturant midpoint” value was 4.46 M.

In the case of MSKSGVPRLLTASERERLEPFIDQIHYSPRYADDEYEYRHVMLPKAMLKAIPTDYFNPETGTLRILQEEEWRGLGITQSLGWEMYEVHVPEGHILLFKREKDYQMKFSQQRGG [P92G], the “ddG of mutation (higher = less stable)” value is reported as -0.07 kcal/mol, the denaturant m value is reported as 1.55 kcal/mol/M and the “denaturant midpoint” value is reported as 4.46 M.

For MSKSGVPRLLTASERERLEPFIDQIHYSPRYADDEYEYRHVMLPKAMLKAIPTDYFNPETGTLRILQEEEWRGLGITQSLGWEMYEVHAPEPHILLFKREKDYQMKFSQQRGG [V89A], the “ddG of mutation (higher = less stable)” value was 0.24 kcal/mol, the denaturant m value was 1.6 kcal/mol/M and the “denaturant midpoint” value was 4.27 M.

With MSKSGVPRLLTASERERLEPFIDQIHYSPRYADDEYEYRHVMLPKAMLKAIPTDYFNPETGTLRILQEEEWRGLGITQSLGWEMYEVHGPEPHILLFKREKDYQMKFSQQRGG [V89G] the “ddG of mutation (higher = less stable)” value was -0.81 kcal/mol, the denaturant m value was 1.63 kcal/mol/M and the “denaturant midpoint” value was 4.93 M.

In the case of MSKSGVPRLLTASERERLEAFIDQIHYSPRYADDEYEYRHVMLPKAMLKAIPTDYFNPETGTLRILQEEEWRGLGITQSLGWEMYEVHVPEPHILLFKREKDYQMKFSQQRGG [P20A], the “ddG of mutation (higher = less stable)” value is reported as 0.3 kcal/mol, the denaturant m value is reported as 1.5 kcal/mol/M and the “denaturant midpoint” value is reported as 4.23 M.

With MSKSGVPRLLTASERERLEPFIDQIHYSARYADDEYEYRHVMLPKAMLKAIPTDYFNPETGTLRILQEEEWRGLGITQSLGWEMYEVHVPEPHILLFKREKDYQMKFSQQRGG [P29A] the “ddG of mutation (higher = less stable)” value was -0.23 kcal/mol, the denaturant m value was 1.39 kcal/mol/M and the “denaturant midpoint” value was 4.56 M.

In the case of MSKSGVARLLTASERERLEPFIDQIHYSPRYADDEYEYRHVMLPKAMLKAIPTDYFNPETGTLRILQEEEWRGLGITQSLGWEMYEVHVPEPHILLFKREKDYQMKFSQQRGG [P7A], the “ddG of mutation (higher = less stable)” value is reported as 0.2 kcal/mol, the denaturant m value is reported as 1.57 kcal/mol/M and the “denaturant midpoint” value is reported as 4.29 M.
